In article PMC6637311, “Glyceraldehyde-3-Phosphate Dehydrogenase of Babesia microti Is a Plasminogen- and Actin-Binding Protein” (Frontiers in Veterinary Science, 2019):

Tested on: O=C[C@H](O)COP(=O)(O)O
Assay: purified protein
Conditions: 0.5 mM NAD+, 50 mM glycine, 50 mM KH2PO4, 5 mM EDTA, pH 9.5, 25 °C

rBmGAPDH (Babesia microti strain RI)
Km: 583 µM
